Experimental data published in the DeepSol protein solubility set.

Test: soluble on expression in E. coli; label from the status in PepcDB or PDB records

Row | Sequence | soluble on expression in E. coli
1 | MGSDKIHHHHHHMKESLRILHINDLHSHFEAYPKIKRFFAEHSKTQREVLRFDIGDNVDKSHPLTDVSAGRVNVDLMNDLGIDFATIGNNEGIGLAKAEINQLYHKADFQVILGNLRDKKGRPTWAQPYVIYETKAGTKLALLAYTFPYYWTYVPNGWQVLDAISSLKKDLENPEVAAADFRILLSHLGIRLDEKIARQVPEIDLIIGAHTHHVFEEGEVVNGTYLAAAGRYGDHVGQIDLDFEDHSLTNIAIEAVPTSDLDSEKEDAAFVAHLFEEGEKLLAENLICKLSRQPSLKECADLVMEAMKKSAAADLAIINTGLVVEPFSQNLTKADLHKSLPHQMRLVKFQVTQTELLEICHDIFSQADLLANQQIRGMGFRGKQFGKVVTSGFTYKNGKIVYNNKAIGRKDKMSLVLVDQYYFAPYFNSLTSRKGQLLFPDLLRQTVEKYLRGDL | not soluble
2 | MNEDIDMLIIANDLKQRGRKSIISGKFIFINMANEYEYVVYPVNENKTLSVKELEEFVDFSNRIKKKGVIAIVDKYGDVTYYLLSEINLGKK | soluble
3 | GPGSMLPHSQPLVLPMEPSNWAVMPPTGVEMPMEPGTFEDISTAGWIGPRRRSFCGPQTEEEWEDLMIHRSSLRRESGQGTGVGLSGSGCLLGTDDPDRDVLCEYYGDMANRDEKVLSCGLRGQEGRRVLGNKPLRQRPNGPMRERTNYGSLASRRQRVMEEGGVWGDVEVCCVPVEPWHPMDMVCLGEERPEDVCVLRQTDTELYGTGRAFATDGKP | not soluble
4 | PSGFPQNLHVTGLTTSTTELAWDPPVLAERNGRIISYTVVFRDINSQQELQNITTDTRFTLTGLKPDTTYDIKVRAWTSKGSGPLSPSIQSRTMPV | soluble
5 | MGSDKIHHHHHHMQRSPIRRSNYTPRNEKGLEGVIELQLNVVSDYLHVGSGKYDVEVMRSVSDVKRLVEDYLSGGNKRIPNNVDQYFSMVAFLMVRNKDNVVIPGSTIKGMVRSRLELSVPGSCYIVTGHSTSSSAVYKRIFNPDPNRGSDRFDVNKFPQVCPVCDLLGNMGLASRVSLSDFVMTSGKVDYVNVKGRDYEVVTKGSIFAGKVLYKSLKPVEIGMLLYGFGFVKDCNGSKVMLLGRFKFSDKRFGRVKFSLKTPIADCNKLVSDFVKQFNPRYINEEW | not soluble
6 | MGSDKIHHHHHHMAGVILLLMGEGLACAHDTALLDKAGRLMASRDYAAAYALLEPVESEYSGDPAYDMLFGLAAIDSGHVTRGVFALERVLAVQPYNGNARAQIARAYFLLGEQEAARAEFRNVLNQQPPEEITQVINRYMSAIDKAQGLTTAFSAYLEGGVGHDSNVNSATAASSVTVAVPALGGLIVDIGLDRQARESSDNYTNLAGGISFRTPLARRFALFAGINASQRLNRHQDAFDLGMLDANVGLSYRQHRDTYTVAAQANSLSLDDQTYRRAYGINMQWQRDIDTKNQVNLFAQVSRLAYPDNRIRDADRYIVGGGWAHVFDGDLTPLLFVSGYGGKEQARNEYADFLSYRVHGVRSGGQLTLRPNLVAFTTLGYENRRHDEPETFPFLFATREDKQLDASVGLRYLPGYNWIIKPQFTFIRNDSTVELYSFDRYMVSVSVRREFNW | not soluble
7 | MSAGQRKEQKLIPVERRQIILEMVAEKGIVSIAELTDRINVSHMTIRRDLQKLEQQGAVVLVSGGVQSPGRVAHEPSHQVKTALAMTQKAAIGKLAASLVLPGSCIYLDAGTTTLAIAQHLIHMESLTVVTNDFVIANYLLDNSNCTIIHTGGAVCRENRSCVGEAAATMLCSLMIDQAFISASSWSVRGISTPAEDKVTVKRAIASASRQRVLVCDATKYGQVATWLALPLSEFDQIITDDGLPESASRALAKQDLSLLVAKNELEHHHHHH | soluble
8 | MYIGGTGVEGYHHLFKEILDNAVDEALAGYATEILVRLNEDGSLTVEDNGRGIPVDLMPEEGKPAVEVIYTTLHSGGKFEQGAYKVSGGLHGVGASVVNALSEWTVVEVFREGKHHRIAFSRGEVTEPLRVVGEAPRGKTGTRVTFKPDPEIFGNLRFDPSKIRARLREVAYLVAGLKLVFQDRQHGKEEVFLDKGGVASFAKALAEGEDLLYEKPFLIRGTHGEVEVEVGFLHTQGYNAEILTYANMIPTRDGGTHLTAFKSAYSRALNQYAKKAGLNKEKGPQPTGDDLLEGLYAVVSVKLPNPQFEGQTKGKLLNPEAGTAVGQVVYERLLEILEENPRIAKAVYEKALRAAQAREAARKARELVRRQNPLESDELPGKLADCQTENPEEAELFIVEGDSAGGSAKQGRDRRFQAILPLRGKILNVEKAGLSKALKNAEVRAMVSAIGVGIGGDGEAHFDLEGLRYHKIIIMTDADVDGSHIRTLLLTFFYRYMRPLIERGHVYIAQPPLYRLQVGKKVEYLYSDEELQARLKELEGKHYEVQRFKGLGEMNPEQLWETTMNPEKRVLKRVELQDALEASELFEKLMGQEVAPRREFIEEHARYAELDI | soluble
9 | QQFHWVNDGYADFDGFLAALSSRKRKAIRKERAQAQGFGGQIRELTGGDLRPEHWDAFWRFYQDTGARKWGSPYLTRAFFDIAHQTMADDMVLVLAERDGIPVAGALNFIGREALFGRYWGCVEHHPCLHFELCYYRAIDWAIAHGLARVEAGAQGEHKLARG | not soluble
10 | MSLKPDNLPVTFGKNDVEIIARETLYRGFSSLDLYRFRHRLFNGQMSHEVRREIFERGHAAVLLPFDPVRDEVVLIEQIRIAAYDTSETPWLLEMVAGMIEEGESVEDVARREAIEEAGLIVKRTKPVLSFLASPGGTSERSSIMVGEVDATTASGIHGLADENEDIRVHVVSREQAYQWVEEGKIDNAASVIALQWLQLHHQALKNEWAEGGSHHHHHH | soluble
11 | MIEFNHVSKTFGDQQAVSDLNLHFSEGSFSVLIGTSGSGKSTTLKMINRLVEHDSGTIRFAGEEIRSLPVLELRRRMGYAIQSIGLFPHWTVAQNIATVPQLQKWSRARINDRIDELMALLGLESALRDRYPHQLSGGQQQRVGVARALAADPQVLLMDEPFGALDPVTRGALQQEMTRIHQLLGRTIVLVTHDIDEALRLADHLVLMDGGHVIQQGSPLSMLTSPENDFVQAFFGRSELGVRLLSLRSVGDYVRRHEQLSGDALVEEMTLRDALSMFVARRCDVLPVANQQGEPCGTLHFRDLLSETSPRETTV | not soluble
12 | MAHHHHHHMTSLHPFEYAFMAGASFSPEERVQLTSSLPLLSVQTKRKNLVLWGKIFGCKADYIIVEAFDDDAVVEPELYHTLDEGRTFSLLGTFSSVFSTCPGYSSCSGLQQAEWKQFMLLGMRGPFFGDPAYEYRVSNHSSSDSAPEIQSVKESVRLALFVEEFDHECRVVPRGAYMKAERQATATIASTTGAEVDAGERAEVRRNTALADFRERRRERCRCGTTTTCVP | not soluble
13 | MGSDKIHHHHHHMENLIKIDTVDQYNKMFGLETLHPLVSVVDLSKSETWPTNFRVNYGIYGLFLKDTKCGDIRYGRQYYDYQEGTVVGFAPGQVTGIELKDGTRPLAHGLLFHPDLIRGTALGRDIKRYSFFSYESNEALHLSEEEKGIFVDCLRKIQIELEHSIDKHSKRLIAMNIELLLDYCLRFYDRQFTTRAETNKDVLVRFERLLDEYLQSDLLRQEGLPTVRYFAEKICLSPNYFGDLIKKETGKTAQENIQDRIISLAKEWIVGTNKTVSQIAYDLGFQYSQHFSRIFKKTVGCTPNEYRKSQMS | not soluble
14 | MVEMTRIKHVAFLNPQGNFDPADSYWTEHPDFGGQLVYVKEVSLALAEMGVQVDIITRRIKDENWPEFSGEIDYYQETNKVRIVRIPFGGDKFLPKEELWPYLHEYVNKIINFYREEGKFPQVVTTHYGDGGLAGVLLKNIKGLPFTFTGHSLGAQKMEKLNVNTSNFKEMDERFKFHRRIIAERLTMSYADKIIVSTSQERFGQYSHDLYRGAVNVEDDDKFSVIPPGVNTRVFDGEYGDKIKAKITKYLERDLGSERMELPAIIASSRLDQKKNHYGLVEAYVQNKELQDKANLVLTLRGIENPFEDYSRAGQEEKEILGKIIELIDNNDCRGKVSMFPLNSQQELAGCYAYLASKGSVFALTSFYEPFGLAPVEAMASGLPAVVTRNGGPAEILDGGKYGVLVDPEDPEDIARGLLKAFESEETWSAYQEKGKQRVEERYTWQETARGYLEVIQEIADRKDEEDEGGSLNIPDYFTNPGASNDEKLLDTFNKLWKE | soluble
15 | MDVVFPKMPHHQTVTNVRVPSSRGSAISRAHSEHRRSIDRSEPRHHHRHHVHSETPELPYTRGISKTPSVREYNVKREGQRSPSRSHRSERSPSEVRIPVTTTHTRPIAKRQSPEELDYGRFADKSQQNRFPGDHQAREEDLPYTRGISKTPSNQDSRSERTPCSDIHIPYNNPEKERAYQQSERSSYRSHKSVTPSEKSLPRNSETPELHYTRGISKTPSDRVEKSRYLSRGVSTPHTPSEVHIPYNNPEKERAYQQSHRPSSPKRRPSGRTNSPNKSSSSSKARPSAAPLEEIVHIKERYERDETIRRFFPTTTAV | not soluble
16 | MSLGDITISFESSDIDRHLILGVDWLIEGNLYEDAVESSIALSRRFLLNGKVKSLEMFLDEKPIDDLLKNYQLSKIHEMDVDSTEDTSVLEIQQYRYLINIFKQYMEWEKTVKLLNSESNIPSIIEKFQEFFQSTFKLIKTFLVDLTENIDHKDHDILFEIRALYTPYLIMELHKGLVEAASLLRIPRFIKDALNITNLVANEDDKIYLLFQSSGKLKEYLQLVAQTATLTEGHHHHHH | soluble
17 | DIQMTQSPSSLSATLGGKVTITCKASQDINKYIAWYQHKPGKGPRLLIHYTSTLQPGNPSRFSGSGSGRDYSFSISNLEAEDIAIYYCLQYDNLQRTFGGGTKVEIKRADAAPTVSIFPPSSEQLTSGGASVVCFLNNFYPKDINVKWKIDGSERQNGVLNSWTDQDSKDSTYSMSSTLTLTKDEYERHNSYTCEATHKTSTSPIVKSFNRNE | soluble
18 | MGSDKIHHHHHHMETRKLAVFVDLATTQNYSRSAERMFLSQSTISKYIMALERDWQVQLFERAHRQVTLTRIGQQLLPRAQAILREERQLQQVLAANTAHNAQSLVVQGLPSLAQYQAFHIITAFTKRYPEVKLQFSEASVDRLAHALDHTNVDIVFTRIFGDQPNNYDVLLNETDQFVVLVPKDDPLAQQAEISLSMLAHESILLLKDTIGEDNPLFSAFQKMHTPQMVYDGQRIDLILEMLNQGDGVSVVMARSFDLTGFDNIKAIPLTPTIRSQMAFMKRPDNHAAVVAKFWAFATKYSQSLSD | not soluble
19 | MGSSHHHHHHSSGRENLYFQGMPIITFLPSGKRAEVDEGKTILSAAQEIGEGIRSLCGGKGSCGKCLVVVRKGDVEILSEEAHEKFVREKGYYLACQTAVKGDVEVFIPPESRLERQQILKDFFISSKEFNPVVKVEFCSDAFLPEVLSQKGLRLACSTDVEEGDFGLVVRGKEVIDVLPDEKAFGLAVDVGTTTIVAALVDLKDGKVVNVASDYNGQIIYGEEVLSRVEFARSRKDGVEVLQRAVVESINKLIDKLLEGYATPDRIYDVVAAGNTIMTHFLVGKDVEYLFSSPDVKVEREGFVVNASEIGLKVNSNAELFCLPPVGRFVGGDIVGDILASRIVDSATISLMVDLGTNGEIVVGSEGWAMATSVASGPAFEGYEIKHGSRAVEGAIDHVEIEGEEVRYTVIGNGKPRSICGSGLIDLMAEMFKNGILDATGAMNKKHPRVRRGEDGYEFVVVEAEKSATAKDIVFTEKDVETLLKSKAAVCAGIAVLIKKAGLGLEDIDEFYIAGAFGYYINFDNAVTIGLFPELKAEVKQIGNGSLAGAYLALVSERKRKLAETIANAFAYFDLSTDADFVEEYRAALSLPGRPELFPETYAKYV | soluble
20 | MKKKGKFLLFTMDEFDQWLLETRFSRSVKLVQNHHTYLPGYVQFTGSNHFGLLEGMEHFHMAERGFSEIAQNLTSFPDGTVAVCRSIDKVPCGIKGANQEGICLENLGNFDAGGDTMTPAHRDAIVKINALLCREFNLTPNTDSIVYHHWYDLNSGKRTGGSGTTKTCPGTAFFGGNSMDAAAATFIPLVAQTLAQLTGGTAPSAPVPLKSGEVVASSLNVRAGRGTEFPVVKGLKRGVRVNVFETADGWVRIHPTEQQWVAERYLRYAAAALEHHHHHH | soluble
